In patent publication US20240294650A1 (Alector, published 2024):

T1: Recombinant human MerTK-human Fc Chimera protein (human, UniProt Q12866 26-499, limits assumed)
T1 construct: bought construct; also called MerTK-Fc (R&D systems, Cat #391-MR-100)
T1 sequence: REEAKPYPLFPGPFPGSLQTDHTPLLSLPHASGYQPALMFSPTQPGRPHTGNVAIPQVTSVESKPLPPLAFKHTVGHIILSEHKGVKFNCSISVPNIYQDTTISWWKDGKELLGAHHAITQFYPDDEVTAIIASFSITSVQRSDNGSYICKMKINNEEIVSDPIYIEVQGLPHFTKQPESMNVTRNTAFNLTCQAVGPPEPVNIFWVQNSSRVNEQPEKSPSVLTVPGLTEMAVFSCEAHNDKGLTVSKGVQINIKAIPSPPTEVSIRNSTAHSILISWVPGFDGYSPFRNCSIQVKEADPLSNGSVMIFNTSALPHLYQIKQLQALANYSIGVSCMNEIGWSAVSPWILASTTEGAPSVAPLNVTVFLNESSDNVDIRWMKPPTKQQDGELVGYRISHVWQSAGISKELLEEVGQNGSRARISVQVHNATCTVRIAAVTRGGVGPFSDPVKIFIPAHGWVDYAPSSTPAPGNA

T2: human MerTK (human, UniProt Q12866 21-999)
T2 construct: endogenous receptor on cells; also called human MerTK endogenously expressed on SK-MEL-5 cells; MerTK on human macrophages
T2 sequence: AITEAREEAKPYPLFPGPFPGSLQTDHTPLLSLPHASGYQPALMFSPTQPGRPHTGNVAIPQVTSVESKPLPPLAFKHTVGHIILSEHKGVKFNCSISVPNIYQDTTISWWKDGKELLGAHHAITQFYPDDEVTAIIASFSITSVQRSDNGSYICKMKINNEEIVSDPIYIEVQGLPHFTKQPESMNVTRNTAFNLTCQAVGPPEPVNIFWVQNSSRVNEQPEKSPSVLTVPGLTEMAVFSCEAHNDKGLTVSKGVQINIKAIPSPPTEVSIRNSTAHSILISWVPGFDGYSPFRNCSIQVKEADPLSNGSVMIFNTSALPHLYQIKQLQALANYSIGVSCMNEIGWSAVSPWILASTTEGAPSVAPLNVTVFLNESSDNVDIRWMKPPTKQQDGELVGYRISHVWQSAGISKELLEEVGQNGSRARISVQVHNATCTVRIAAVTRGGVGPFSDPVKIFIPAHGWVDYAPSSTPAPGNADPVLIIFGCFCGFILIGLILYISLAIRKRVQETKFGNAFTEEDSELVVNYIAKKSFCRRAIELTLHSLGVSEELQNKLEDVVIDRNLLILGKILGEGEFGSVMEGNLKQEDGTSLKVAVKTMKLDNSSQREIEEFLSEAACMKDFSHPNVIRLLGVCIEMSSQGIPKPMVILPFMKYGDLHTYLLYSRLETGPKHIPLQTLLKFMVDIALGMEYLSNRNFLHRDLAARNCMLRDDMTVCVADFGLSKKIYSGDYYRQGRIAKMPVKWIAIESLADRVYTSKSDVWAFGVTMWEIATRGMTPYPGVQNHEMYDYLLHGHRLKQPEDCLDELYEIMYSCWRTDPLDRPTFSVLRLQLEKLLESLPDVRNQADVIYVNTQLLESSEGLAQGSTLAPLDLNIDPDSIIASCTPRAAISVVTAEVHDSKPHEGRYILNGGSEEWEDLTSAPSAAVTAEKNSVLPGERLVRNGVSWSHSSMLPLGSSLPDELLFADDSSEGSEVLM


Experiments:
[1] = target: T1, Recombinant human MerTK-human Fc …; test: blocking ELISA, Gas6-His on MerTK-Fc, Ab 66.6 nM, isotype=100%
Description: Briefly, rabbit anti-human IgG antibody (Jackson ImmunoResearch, Cat #309-005-008) was coated at 2 μg/ml onto high-protein binding plates at 4° C. overnight. After washing with 0.05% Tween20 in PBS three times, 5% BSA in PBS was added for 1 hour. Recombinant human MerTK-human Fe Chimera protein (R&D systems, Cat #391-MR-100) was added at 2 μg/ml for 1 hour and plates were washed before the addition of 40 μl of anti-MerTK hybridoma supernatants and 40 μl of His tag-conjugated recombinant Gas6 (R&D systems, Cat #885-GSB-050) at 3 μg/ml or His tag-conjugated recombinant ProS (R&D systems, Cat #9489-PS-100) at 20 μg/ml. After a further incubation for 1 hour, plates were washed and incubated for 1 hour with HRP-conjugated anti-6×His tagged antibody (Abcam, Cambridge, MA, Cat #ab1187). Plates were then washed and an HRP substrate, TMB, was added to develop the plates. The reaction was stopped by adding 50 μl 2N H₂SO₄ and the OD was measured using a spectrophotometer (BioTek).
Anti-MerTK antibodies were titrated to a final concentration from 66.6 nM to 4 pM and tested against anti-human MerTK antibody M6 (disclosed in WO2016/106221) or isotype control antibody.

[2] = target: T2, human MerTK; test: FACS, SK-MEL-5 cells, 10 ug/ml
Description: To determine whether recombinant anti-human MerTK antibodies of the present disclosure bind to human MerTK endogenously expressed on SK-MEL-5 cells and CHO cells overexpressing mouse MerTK (CHO-muMerTK OE cells), as compared to A375 and parental CHO cells as negative controls, the following experiments were performed. SK-MEL-5 cells, A375 cells, CHO-muMerTK OE cells, and CHO parental cells were plated at 100,000 cells/well. Anti-MerTK antibodies were added to the cells at 10 μg/ml. After 60 minutes on ice, cells were washed and then stained with PE-conjugated goat anti-human IgG antibody (Southern Biotech Cat #2040-09, Birmingham, AL) in the presence of Fc block solution on ice for 30 minutes, and then washed twice with cold FACS buffer (2% FBS in PBS). Mouse anti-human MerTK-PE conjugated (Biolegend, Clone 590H11G1E3) or anti-mouse MerTK-PE conjugated (ThermoFisher, Clone DS5MMER) antibodies were used as positive controls. Stained cells were acquired on a BD FACS Canto II cytometer and the mean fluorescence intensity (MFI) was calculated with FlowJo.

Binder	Percent Gas6 ligand binding [1] [%]	MFI [2] [MFI]
MTK-208 (antibody, human IgG1, V domains shown) VH: QVQLQQPGAELVVPGASVRLSCKASGYTFINYWMHWVKQRPGQGLEWIGEIDPSDSYANYNQKFKDKSTLSLDKSSSTAYMQLSSLTSEDSAVYYCARCDYYGRLDYWGQGTTLTVSS VL: QVVLTQSPAIMSASPGEKVTITCSASSSVSYMLWFQQKPGTSPKLWIYSTSNLASGVPARFSGSGSGTSYSLTISRLEAEDAATYYCQQRSSYPPITFGAGTKLELK	107	14100
MTK-207 (antibody, human IgG1, V domains shown) VH: QVQLKESGPGLVAPSQSLSITCTVSGISLTSYGVSWVRQPPGKGLEWLGIIWGDGSTNYHSALISRLSISKDNSKSQVFLKLNSLQTDDTATYYCAKGRYGNYEDWYFDVWGTGTTVTVSS VL: DIQMTQSPASLSASVGETVTITCRASGNIHNYLAWYQQKQGKSPQLLVYNAKTLAAGVPSRFSGSGSGTQYSLKINSLQPEDFGSYYCQHFWSIPLTFGAGTKLELK	116	1190
MTK-225 (antibody, human IgG1, V domains shown) VH: EVQLQQSGPELVKPGASVKIFCKASGYTFTAYNMDWVKQSHGKSLEWIGDINPNNGGTIYNQKFKGKATLTVDKSSSTAYMELRSLTSEDTAVYYCARRRRYGNTYYWYFDVWGTGTTVTVSS VL: DIQMTQSPASLSVSVGETVTITCRASENIYSSLAWYQQKQGKSPQLLVYAATNLADGVPSRFSGSGSGTQFYLKINGLQSEDFGSYYCQHFWGTSYTFGGGTKLEIK	120	40200
MTK-221 (antibody, human IgG1, V domains shown) VH: QVTLKESGPGMLQSSQTLSLTCSFSGFSLSTSGMGVSWIRQPSGKGLEWLAHIYWDDDKRYNTSLQSRLTISKDTSRNQVFLKITSVDTADTATYFCGRLGAYSAFPYYFDYWGQGTTLTVSS VL: DIQMTQSPSSLSASLGGKVTITCKASQDIHKHIAWYQHKPGKGPRLLIHYTSTLQPGIPSRFSGSGSGRDYSFSISNLEPEDLATYYCLQYDNLWTFGGGTKLEIK	106	42800
